These results are taken from patent publication US20260130973A1, “COMPOSITIONS AND METHODS FOR DEGRADATION OF LIPOFUSCIN CYCLORETINAL BY MSP1” (THE TEXAS A&M UNIVERSITY SYSTEM, priority 2022, published 2026).

One data set has as its system ARPE-19 cells. Put plainly: ARPE-19 cytotoxicity of liposomal complexes, MTT assay. The class given is cell-based. The settings on record: similar concentrations as cycloretinal, 96-h period. As to the method: The liposomal complexes were prepared as follows. Cycloretinal (10 mg), β-Ionone (20 mg), and 2,4-Dimethylbenzaldehyde (20 mg) were dissolved separately in ethanol (1 mL). Glyoxal (5.80 mg), methylglyoxal (7.21 mg), and β-cyclocitral (15.2 mg) were dissolved separately in chloroform (1 mL). A liposome solution of cholesterol (112 mg), Tween 80 (504 mg), and L-α-phosphatidylcholine (730 mg) were dissolved in 16 mL of chloroform. Liposome solution (2 mL) was added to each of the compounds. The solvents were removed under vacuum and charged with nitrogen. Each of the flasks were then mixed with 5 mL of water and stirred at 60° C. for 1 h. Each solution was placed on ice and sonicated with a probe sonicator (15 seconds on/15 seconds off) for 5 min. The solutions were centrifuged at 11,000×g for 30 min and filtered through a 0.2 μm filter. Each sample (10 μL) was added to 1 mL ethanol and measured by absorption via UV-Vis spectroscopy. The extinction coefficients were 9970 M^−1cm^−1, 26343 M^−1cm^−1, and 13476 M^−1cm^−1 for cycloretinal, 2,4-dimethylbenzaldehyde, and β-ionone, respectively. […]
Cell viability was assessed with the MTT cell proliferation assay. […] The absorbance was subsequently evaluated at 570 nm utilizing a microplate reader (quant absorbance plate reader, BioTek Instruments Inc.) […]
(Tetrazolium assays rely on reduction of a dye to a coloured formazan, in cell work by metabolically active cells.)

A short description of data set [1]: Activity of MsP1 at different pH (cycloretinal degradation). The data set is classed as biochemical. As to the method:
To determine the optimum pH for MsP1 activity, cycloretinal degradation reactions were carried out in PBS buffer as described herein but at different pH values by adjusting pH with either NaOH or HCl (i.e. a pH of 5.5, 6.4, 7.0, 7.5). Sample OD values were monitored using a UV-Vis spectrophotometer (Genesys™2, ThermoSpectronic) at 430 nm over a period of 300 seconds.

Substrate in data set [2]: CC(C=CC1=C(C)CCCC1(C)C)=CC=CC1=CC=C(C=O)C(C)(C=CC=C(C)C=CC2=C(C)CCCC2(C)C)C1
Put plainly: MsP1 H365F variant-catalyzed degradation of cycloretinal, steady-state enzyme kinetics. The settings on record: other: H365F, PBS pH 7.4, H2O2, 430 nm, mean and 95% confidence limits. The class given is biochemical, Marasmius scorodonius. As to the method:
(§1) The gene encoding Marasmius scorodonius extracellular peroxidase MsP1 (UniProtKB, B0BK71) and its R388L variant were chemically synthesized with codon optimization for E. coli, having an optimized sequence length 1539 bp cloned into pUC57 vector with a GC content of 54.67% (SEQ ID NO: 5).
(§2) MsP1 mutants were generated using the Agilent mutagenesis kit (Quick change II site directed mutagenesis kit, catalog number: 200523) and primers of Table 1. Primer annealing was carried out at 55° C. for 60 seconds followed by a polymerization step carried out at 68° C. for 5 minutes. A total of 16 cycles were carried out. After PCR amplification DpnI digestion was performed by adding 1.5 μL DpnI to PCR amplification mixture incubating for 4 hours at 37° C. The resulting mixture was cleaned using resin provided in the kit and transformed into XL1 Blue electrocompetent cells. The resulting clones were screened and sequenced to confirm mutagenesis.
(§3) Active site residues were selected based on multiple sequence alignment with homologous DyPs and protein modelling, His 365, Asp 228, and Arg 388 were identified as amino acids that are critical to MsP1 activity. […] This means that wtMsP1 has greater substrate affinity for cycloretinal, compared with D228A and R388L variants, and reaches half maximal velocity at lower substrate concentration. […] The greater affinity observed for the phenylalanine variant likely signifies that cycloretinal can dock with greater affinity in the active site since the iron porphyrin heme cofactor would no longer be covalently bound at residue 365. Therefore, the residues involved in MsP1 catalysis are D228, H365, and R388 (FIG. 10).

Substrate in data set [3]: CC(C=CC1=C(C)CCCC1(C)C)=CC=CC1=CC=C(C=O)C(C)(C=CC=C(C)C=CC2=C(C)CCCC2(C)C)C1
Kind of data set: MsP1 R388L variant-catalyzed degradation of cycloretinal, steady-state enzyme kinetics. The data set is classed as biochemical, Marasmius scorodonius. The note with it: other: R388L, PBS pH 7.4, H2O2, 430 nm, mean and 95% confidence limits. On the procedure: as §1, §2, §3

Substrate in data set [4]: CC(C=CC1=C(C)CCCC1(C)C)=CC=CC1=CC=C(C=O)C(C)(C=CC=C(C)C=CC2=C(C)CCCC2(C)C)C1
Kind of data set: MsP1 D228A variant-catalyzed degradation of cycloretinal, steady-state enzyme kinetics. The settings on record: other: D228A, PBS pH 7.4, H2O2, 430 nm, mean and 95% confidence limits. The data set is classed as biochemical, Marasmius scorodonius. On the procedure:
as §1, §2, §3

Substrate in data set [5]: CC(C=CC1=C(C)CCCC1(C)C)=CC=CC1=CC=C(C=O)C(C)(C=CC=C(C)C=CC2=C(C)CCCC2(C)C)C1
Put plainly: MsP1-catalyzed degradation of cycloretinal, steady-state enzyme kinetics (decrease in absorbance at 430 nm). The data set is classed as biochemical, Marasmius scorodonius. The note with it: other: wtMsP1, PBS pH 7.4, H2O2, 430 nm, mean and 95% confidence limits.
Text: as §1

“Also recorded” adds a separate entry of the source.

With `O=CC=O` [glyoxal], the “impact on cell viability / toxicity to ARPE-19 cells” value in the data set on ARPE-19 cells is “no impact on cell viability; also recorded: do not exhibit toxicity”.

B1: MsP1: peroxidase enzyme from the organism Marasmius scorodonius, SEQ ID NO: 1; recombinant, N-terminal hexa-Histidine tag (protein, listed as Mycetinis scorodonius)
chain: MKLFSASVFAAIIASHYASATAHIRAPNVKPRRTNSLLTAPPQQPPLPSAQQAASASSSAGLNLTDIQGDILIGMKKNKELFFFFSITDAATFKAKLGSDILELITSTNQLLAVATQPITAVNVAFSSTGLKALGITDDLKDPVFEAGMLSNAVSDLSDPGTGNWVPGFVGTSVHGVFLLASDTIDNVNTELANIQTILNGSITEIHRLQGEARPGDQQGHEHFGFMDGISNPAVDGFTPPAEIRPGQALIPPGIMLLGEANDTFQNDRPPWAKDGSFLVFRQMQQRAPEFNKFLQDHALNMPNMTSEQGADLLGARIVGRWKSDAPIDLTPLVDDPVLAADNQRNNNFDFSDATNQTRCPFSAHIRKANPRGDLGGINKFPNQHIIRAGIPYGPEVTDAEKASNSSSTDPSLERGLAFVAYQSNIQNGFVFLQKNWVDNTNFFRPGTGVDPLIGTNSRNSGTDAPNTPRVVSGLDPNNATSTIEIGIDFVVSRGGEYFFSPSLSAIRTVLSV
modifications: MsP1 amino acid sequence
Take B1: the “optimal pH for MsP1 catalytic activity towards cycloretinal” value in data set [1] (pH 5.5, 6.4, 7.0, 7.5 tested) is 5.5. In data set [1] (pH of 5.5), the “activity at lysosomal pH” value is reported as “highly active”.

B2: Marasmius scorodonius peroxidase MsP1 variant H365F (parent SEQ ID NO: 1) (Mycetinis scorodonius; H365F) (protein)
chain: ASSSAGLNLTDIQGDILIGMKKNKELFFFFSITDAATFKAKLGSDILELITSTNQLLAVATQPITAVNVAFSSTGLKALGITDDLKDPVFEAGMLSNAVSDLSDPGTGNWVPGFVGTSVHGVFLLASDTIDNVNTELANIQTILNGSITEIHRLQGEARPGDQQGHEHFGFMDGISNPAVDGFTPPAEIRPGQALIPPGIMLLGEANDTFQNDRPPWAKDGSFLVFRQMQQRAPEFNKFLQDHALNMPNMTSEQGADLLGARIVGRWKSDAPIDLTPLVDDPVLAADNQRNNNFDFSDATNQTRCPFSAFIRKANPRGDLGGINKFPNQHIIRAGIPYGPEVTDAEKASNSSSTDPSLERGLAFVAYQSNIQNGFVFLQKNWVDNTNFFRPGTGVDPLIGTNSRNSGTDAPNTPRVVSGLDPNNATSTIEIGIDFVVSRGGEYFFSPSLSAIRTVLSV
notes: site-directed mutant
The term Km denotes the concentration of substrate that gives half-maximal velocity. One may read the kcat as the number of substrate molecules converted per active site and unit of time at saturation. Broadly, the kcat/Km is the turnover number divided by the Michaelis constant. As to B2, in data set [2], the Michaelis constant (Km) was determined as 906 ± 26 µM, the catalytic constant (kcat) is 0.142 ± 0.0031 s⁻¹ and the kcat/Km was 156 ± 8 M⁻¹ s⁻¹.

B3: Marasmius scorodonius peroxidase MsP1 variant R388L (parent SEQ ID NO: 1) (Mycetinis scorodonius; R388L) (protein)
chain: ASSSAGLNLTDIQGDILIGMKKNKELFFFFSITDAATFKAKLGSDILELITSTNQLLAVATQPITAVNVAFSSTGLKALGITDDLKDPVFEAGMLSNAVSDLSDPGTGNWVPGFVGTSVHGVFLLASDTIDNVNTELANIQTILNGSITEIHRLQGEARPGDQQGHEHFGFMDGISNPAVDGFTPPAEIRPGQALIPPGIMLLGEANDTFQNDRPPWAKDGSFLVFRQMQQRAPEFNKFLQDHALNMPNMTSEQGADLLGARIVGRWKSDAPIDLTPLVDDPVLAADNQRNNNFDFSDATNQTRCPFSAHIRKANPRGDLGGINKFPNQHIILAGIPYGPEVTDAEKASNSSSTDPSLERGLAFVAYQSNIQNGFVFLQKNWVDNTNFFRPGTGVDPLIGTNSRNSGTDAPNTPRVVSGLDPNNATSTIEIGIDFVVSRGGEYFFSPSLSAIRTVLSV
notes: R388L variant gene synthesized
Regarding B3, in data set [3], the Km worked out at 1140 ± 11 µM, the turnover number (kcat) stood at 0.0218 ± 0.00018 s⁻¹ and the kcat/Km was found to be 19.2 ± 0.3 M⁻¹ s⁻¹.

B4: Marasmius scorodonius peroxidase MsP1 variant D228A (parent SEQ ID NO: 1) (Mycetinis scorodonius; D228A) (protein)
chain: ASSSAGLNLTDIQGDILIGMKKNKELFFFFSITDAATFKAKLGSDILELITSTNQLLAVATQPITAVNVAFSSTGLKALGITDDLKDPVFEAGMLSNAVSDLSDPGTGNWVPGFVGTSVHGVFLLASDTIDNVNTELANIQTILNGSITEIHRLQGEARPGDQQGHEHFGFMAGISNPAVDGFTPPAEIRPGQALIPPGIMLLGEANDTFQNDRPPWAKDGSFLVFRQMQQRAPEFNKFLQDHALNMPNMTSEQGADLLGARIVGRWKSDAPIDLTPLVDDPVLAADNQRNNNFDFSDATNQTRCPFSAHIRKANPRGDLGGINKFPNQHIIRAGIPYGPEVTDAEKASNSSSTDPSLERGLAFVAYQSNIQNGFVFLQKNWVDNTNFFRPGTGVDPLIGTNSRNSGTDAPNTPRVVSGLDPNNATSTIEIGIDFVVSRGGEYFFSPSLSAIRTVLSV
notes: site-directed mutant
Consider B4, for which, in data set [4], the Michaelis constant (Km) worked out at 4230 ± 82 µM, the kcat turned out to be 0.388 ± 0.0073 s⁻¹ and the kcat/Km is 91.6 ± 3.5 M⁻¹ s⁻¹.

B5: Marasmius scorodonius peroxidase MsP1, wild type (wtMsP1), SEQ ID NO: 1 (Mycetinis scorodonius) (protein)
chain: ASSSAGLNLTDIQGDILIGMKKNKELFFFFSITDAATFKAKLGSDILELITSTNQLLAVATQPITAVNVAFSSTGLKALGITDDLKDPVFEAGMLSNAVSDLSDPGTGNWVPGFVGTSVHGVFLLASDTIDNVNTELANIQTILNGSITEIHRLQGEARPGDQQGHEHFGFMDGISNPAVDGFTPPAEIRPGQALIPPGIMLLGEANDTFQNDRPPWAKDGSFLVFRQMQQRAPEFNKFLQDHALNMPNMTSEQGADLLGARIVGRWKSDAPIDLTPLVDDPVLAADNQRNNNFDFSDATNQTRCPFSAHIRKANPRGDLGGINKFPNQHIIRAGIPYGPEVTDAEKASNSSSTDPSLERGLAFVAYQSNIQNGFVFLQKNWVDNTNFFRPGTGVDPLIGTNSRNSGTDAPNTPRVVSGLDPNNATSTIEIGIDFVVSRGGEYFFSPSLSAIRTVLSV
notes: wild type
Take B5: in data set [5], the Michaelis-Menten constant (Km) was 845 ± 11 µM, the kcat was 0.229 ± 0.0024 s⁻¹ and the specificity constant (kcat/Km) stood at 271 ± 6.2 M⁻¹ s⁻¹.
